Source: the Human Domainome abundance scans (Beltran et al. 2025)
± gives the uncertainty stated by the source.

B1: Serine/threonine-protein kinase A-Raf, residues 21 to 89; numbered along this chain, P10398 (parent)
chain: VKVYLPNKQRTVVTVRDGMSVYDSLDKALKVRGLNQDCCVVYRLIKGRKTVTAWDTAIAPLDGEELIVE

Variants of: B1
Assay: abundance fitness (aPCA) (normalised: wild type 0, dead -1); higher = more abundant; growth selection in yeast, the domain comes from the species named
Settings: Homo sapiens

Abundance fitness: each site, then its substitutions
R32: D -0.487 ± 0.34, I 0.188 ± 0.13, Y -0.012 ± 0.19, T -0.2 ± 0.08, E -0.193 ± 0.045, K -0.369 ± 0.068, S -0.141 ± 0.058, Q 0.065 ± 0.044, C -0.162 ± 0.21, H 0.1 ± 0.18, L 0.046 ± 0.07, W -0.203 ± 0.057, N 0.141 ± 0.13, G -0.298 ± 0.053, M 0.12 ± 0.06, A 0.088 ± 0.063, P -0.59 ± 0.19, V 0.019 ± 0.055, F -0.009 ± 0.26
C38: G 0.038 ± 0.052, Q -0.037 ± 0.072, T -0.004 ± 0.082, H -0.019 ± 0.11, W -0.179 ± 0.059, E 0.118 ± 0.091, F -0.136 ± 0.097, I -0.074 ± 0.1, M 0.12 ± 0.09, N 0.141 ± 0.3, Y -0.082 ± 0.12, P -0.677 ± 0.14, R -0.094 ± 0.051, V -0.075 ± 0.063
K30: I -0.63 ± 0.47, R -0.006 ± 0.032, W -0.969 ± 0.15, G -0.426 ± 0.053, Q -0.217 ± 0.063, L -0.561 ± 0.087, P -0.957 ± 0.19, M -0.288 ± 0.097, T -0.152 ± 0.095, H -0.83 ± 0.29, F -0.574 ± 0.12, S -0.265 ± 0.075, C -0.583 ± 0.13, A -0.218 ± 0.047, Y -0.403 ± 0.13, E -0.336 ± 0.088, N -0.478 ± 0.29, V -0.713 ± 0.094
C39: H -0.171 ± 0.093, M -0.432 ± 0.1, N -0.848 ± 0.2, E -1.16 ± 0.36, F -0.466 ± 0.13, A -0.504 ± 0.1, S -0.585 ± 0.11, V -0.161 ± 0.066, I -0.766 ± 0.27, G -0.944 ± 0.18, P -0.805 ± 0.2, R -0.987 ± 0.2
Q36: K 0.046 ± 0.15, E -0.485 ± 0.3, Y -0.169 ± 0.17, H -0.203 ± 0.077, I -0.043 ± 0.12, S -0.178 ± 0.072, P -0.03 ± 0.067, F -0.134 ± 0.12, G -0.398 ± 0.09, N -0.574 ± 0.22, C -0.206 ± 0.12, A -0.043 ± 0.071, M -0.18 ± 0.082, T -0.162 ± 0.069, L -0.335 ± 0.072, R 0.058 ± 0.083, D -0.582 ± 0.31, V -0.028 ± 0.065
N35: A -0.188 ± 0.066, V -0.161 ± 0.053, I -0.682 ± 0.19, M -0.321 ± 0.081, D -0.132 ± 0.12, Y -0.019 ± 0.21, W -0.866 ± 0.15, R -0.101 ± 0.04, F -0.449 ± 0.18, K -0.063 ± 0.086, G -0.154 ± 0.041, T 0.025 ± 0.064, L -0.32 ± 0.044, Q -0.221 ± 0.069, P -0.754 ± 0.15, E 0.016 ± 0.068, H -0.415 ± 0.37
D37: T -0.387 ± 0.16, Q 0.14 ± 0.15, A -0.39 ± 0.097, H -0.097 ± 0.1, P -0.662 ± 0.26, L -0.567 ± 0.089, W -0.838 ± 0.31, R -0.198 ± 0.059, I -0.39 ± 0.26, Y -0.408 ± 0.15, M -0.499 ± 0.098, G -0.219 ± 0.061, C -0.273 ± 0.098, E -0.141 ± 0.15, V -0.755 ± 0.13, S -0.196 ± 0.079, N -0.186 ± 0.15
G33: E -0.26 ± 0.22, T -0.626 ± 0.2, A -0.546 ± 0.12, L -0.942 ± 0.2, D -0.416 ± 0.2, R -0.712 ± 0.081, P -0.953 ± 0.24, Y -0.894 ± 0.32, C -0.694 ± 0.2, N -0.473 ± 0.14, S -0.525 ± 0.089, K -0.41 ± 0.16, V -0.573 ± 0.069, M -0.037 ± 0.091, Q -0.576 ± 0.12
L34: P -0.833 ± 0.15, R -1 ± 0.12, T -1.05 ± 0.23, V -1 ± 0.15, A -1.02 ± 0.17, H -0.789 ± 0.22, M -0.135 ± 0.059, S -0.835 ± 0.17, F -0.074 ± 0.14, G -1.1 ± 0.15, W -0.27 ± 0.055, Y -0.459 ± 0.22, C -0.644 ± 0.13
L29: S -0.558 ± 0.072, R -0.969 ± 0.099, W -0.601 ± 0.07, N -0.607 ± 0.25, T -0.845 ± 0.2, P -0.958 ± 0.096, Q -0.913 ± 0.23, V -0.806 ± 0.095
V31: P -0.41 ± 0.1, I -0.076 ± 0.07, E 0.066 ± 0.067, L 0.005 ± 0.046, K -0.042 ± 0.079, G -0.086 ± 0.04, W -0.305 ± 0.072, T 0.015 ± 0.08, F -0.187 ± 0.12, D -0.265 ± 0.25, A 0.111 ± 0.056, M -0.045 ± 0.082, Y -0.278 ± 0.15, C -0.103 ± 0.086, R 0.004 ± 0.046, N -0.073 ± 0.17
